# Measurements: US20060142546A1, “Immunogenic muc1 glycopeptides” (priority 2002, published 2006)
# Where a SMILES comes first, the peptide text is derived from it. Where no end group is shown, it is not given here. The star is where a group is joined. Cbz = O=C(OCc1ccccc1)*; CH2F = FC*
# Legend:
# human cathepsin L = target: T1, human cathepsin L (Homo sapiens, UniProt P07711); assay: In vitro proteolysis of native MUC1 and MUC1 (glyco)peptides with human cathepsin L; format: biochemical; conditions: for proteolysis by cathepsin L: 3 h or 24 h
# T1 construct: in the cathepsin L preparation from human liver; purchased Sigma (München, Germany); host or cells: human liver
# Description: FIG. 4: In vitro proteolysis of MUC1 glycopeptide A3 by human cathepsin L. N-terminally free or biotinylated MUC1 glycopeptide A3 (10 μg) were treated for 3 h with 1 milliunit of cathepsin L in the presence or absence of the cathepsin L/B-specific cysteine protease inhibitor Z-Leu-Leu-Leu-fluoromethyl ketone (1 μM) using 0.1M sodium acetate, pH 5.5, containing 1 mM EDTA, and 1 mM DTT as reaction buffer.
# Human cathepsins L and D were purchased from Sigma (München, Germany) and solubilized in 0.1 M sodium acetate buffer, pH 5.5, containing 1 mM EDTA (cathepsin D) and 1 mM dithiotreitol (cathepsin L). 2-5 units of enzyme(s) were added to 100 μg of mucin or recombinant fusion protein or to 10 μg of (glyco)peptide substrates in a total volume of 20 μl digestion buffer (see above). The reaction mixtures were incubated at 37° C. and 2 μl were withdrawn after 3 h or 24 h and diluted 20 fold in 0.1% aqueous TFA prior to MALDI mass spectrometry. In case of native MUC1 samples with complex O-glycosylation (MUC1 from tumor ascites, HMFG-MUC1, partially deglycosylated HMFG-MUC1, and MFP6 fusion protein) the digest was desalted by solid-phase extraction (ZipTip C18) and the (glyco)peptides were deglycosylated by β-elimination/ethylaminylation in 70% ethylamine at 50° C. as previously described (Müller and Hanisch, J. Biol. Chem. 277 (2002), 26103-26112). Each glycosylated position in the peptide fragments corresponds to the addition of a 27 u mass increment.
# [1] = test system: human immature dendritic cells; assay: Processing of MUC1 antigen by human monocyte-derived dendritic cells (antigen pulse, MALDI/LC-MS of fragments); format: cell-based; conditions: cellular lysate or culture supernatant, mass range up to 8 kDa
# Description: Human immature DCs were pulsed with native, N-terminally unmodified, soluble antigens, while the mature mouse DCs had to be fed with particulate antigen to reach sufficient antigen load. […] Simultaneously, the maturation process of the cells was induced by addition of 20 ng/ml tumor necrosis factor (TNF-α; Sigma-Aldrich, Munich, Germany) and 10 μg/ml of anti-CD40 antibody (Pharmingen, San Diego, Calif.). The cells were finally separated from medium by centrifugation, washed in PBS and both fractions were analysed for the presence of peptide/glycopeptide fragments according to the protocol described below.
# The human or mouse dendritic cell fractions were treated on ice for 15 min with 100 μl 1% NP40, 10 mM Tris-HCl, 150 mM NaCl, pH 8.0 containing a cocktail of protease inhibitors (Sigma P8340, München, Germany) followed by ultrasonication for 2 min. […] To avoid selection of product subfractions by affinity-isolation, in most experiments the peptides were enriched by solid-phase extraction on reversed-phase columns.
# Peptides and glycopeptides contained in the cell-free supernatants were affinity-isolated by solid-phase extraction on reversed-phase supports (100 μg polysphere C18, 50 μl Poros C18). […]
# [2] = test system: Cathepsin L-like activity in low-density endosomes from mouse dendritic cells; assay: Proteolysis of TAP25 by low-density endosomal fractions from mouse dendritic cells; format: biochemical; conditions: 1 μM inhibitor, TAP25 as substrate
# Description: Mouse dendritic cells (10^8) were homogenized by fine-needle aspiration on ice using 1 ml of 0.3 M sucrose, 0.01 M Hepes as buffer (without protease inhibitors). After dilution to 7 ml and centrifugation at 850 g for 10 min to remove intact cells and nuclei, 6 ml of the supernatant were centrifuged over 24 ml of 30% Percoll with 0.3 M sucrose, 0.01 M Hepes for 105 min at 20.000 rpm in a centrifuge (model J2-21 M/E, rotor: JA-20, Beckman instruments, München, Germany) (Barnes et al., J. Exp. Med. 181 (1995), 1715-1727). The gradient was fractionated by gravity siphon (30×1 ml) and each fraction was analysed after sonication for the presence of MHC class II molecules by enzyme immunoassay with anti-H2 antibody (rat hybridoma cell line M1/42.3.9.8.HLK obtained from the ATCC), β-hexosamimidase activity (Barnes et al., 1995) and cathepsin L related proteolytic activity using TAP25 peptide as substrate (5 μg). The samples were incubated for 24 h at 37° C., diluted 20 fold in aqueous TFA and analysed by MALDI mass spectrometry. For specific inhibition of cathepsin L activity, the corresponding fractions were mixed with 1 μM Z-Leu-Leu-Leu-fluoromethyl ketone (Sigma).
# T1 sequence (P07711 114-288 limits assumed): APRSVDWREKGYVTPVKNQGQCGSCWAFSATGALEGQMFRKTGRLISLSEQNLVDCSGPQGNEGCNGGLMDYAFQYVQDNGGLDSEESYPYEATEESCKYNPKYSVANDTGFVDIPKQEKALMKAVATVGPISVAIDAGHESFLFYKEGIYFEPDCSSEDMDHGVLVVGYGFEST
# T1 sequence (P07711 292-333 limits assumed): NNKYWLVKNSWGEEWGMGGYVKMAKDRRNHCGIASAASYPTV
compound,measurement,setting,value
"GST20-AES (GSTAPAAHGVTSAPESRPAP; also: glycosylated, sites not given here)",structural assignment of product,"human cathepsin L; Table 2, 3 h, 37° C., pH 5.5",SAP9
same,Average mass of production (mass range 500-4500 Da),"human cathepsin L; Table 2, synthetic monomeric repeat peptides, N-terminally unmodified, 3 h, 37° C., pH 5.5, 1 mM DTT",910.8 Da
same,cleavage,"human cathepsin L; standard conditions for cysteine proteases, incubation 3 h",80%
Asc-MUC1: MUC1 from pooled human tumor ascites,proteolysis by cathepsin L,"human cathepsin L; pH 5.5, 1 mM DTT, 37° C.",not digested
same,fragmentation of antigen,[1],No fragmentation
"AHGVTSAPESRPAPGSTAPAA (not fully specified (residue 5); also: GalNAc glycan at Thr5 (H4), Ser10 (H5) or Thr17 (H6), which one is not fixed for this name, biotinylated)",proteolysis by cathepsin L,"human cathepsin L; pH 5.5, 1 mM DTT, 37° C.",stable to proteolysis
"CC(C)C[C@H](NC(=O)[C@H](CC(C)C)NC(=O)[C@H](CC(C)C)NC(=O)OCc1ccccc1)C(=O)CF [Z-Leu-Leu-Leu-fluoromethyl ketone, reference compound] (Cbz-Leu-Leu-Leu-CH2F)",inhibition of cysteine protease in low density endosomes,[2],inhibitable
same,inhibition of catalytic activity directed to the Thr-Ser bond,"human cathepsin L; inhibitor 1 μM, substrate glycopeptide A3",specifically inhibited
HMFG-MUC1: mucin from human milk fat globule membranes,proteolysis by cathepsin L,"human cathepsin L; pH 5.5, 1 mM DTT, 37° C.",not digested
GalNAc-MUC1: partially deglycosylated HMFG-MUC1,structural assignment of repeat fragment ion,"human cathepsin L; Table 3, native mucin, after de-O-glycosylation/ethylaminylation",GVT20 + 1-4 HexNAc
same,proteolysis by cathepsin L,"human cathepsin L; pH 5.5, 1 mM DTT, 37° C.",fragmentation by cathepsin L at low efficiency
